Source: US9220746B2, “Compounds and methods for treating bone disorders and controlling weight” (The University of North Carolina at Chapel Hill, priority 2009, dated 2015)

B1: IGFBP-2: Insulin-like growth factor binding protein-2, 36,000 dalton protein, purified from cellular conditioned medium (protein, UniProt P18065 36-325, looked up)
Insulin-like growth …: AEVLFRCPPCTPERLAACGPPPVAPPAAVAAVAGGARMPCAELVREPGCGCCSVCARLEGEACGVYTPRCGQGLRCYPHPGSELPLQALVMGEGTCEKRRDAEYGASPEQVADNGDDHSEGGLVENHVDSTMNMLGGGGSAGRKPLKSGMKELAVFREKVTEQHRQMGKGGKHHLGLEEPKKLRPPPARTPCQQELDQVLERISTMRLPDERGPLEHLYSLHIPNCDKHGLYNLKQCKMSLNGQRGECWCVNPNTGKLIQGAPTIRGDPECHLFYNEQQEARGVHTQRMQ

Legend:
[1] = system: PTEN; experiment: Western blot analysis of PTEN expression; assay type: cell-based, mouse; conditions: for PTEN concentrations: aortic smooth muscle and bone cells from IGFBP-2 gene deleted mice, exogenous addition
Procedure: FIG. 5. The heparin-binding domain of IGFBP2 suppresses PTEN expression. a and b, Igfbp2^−/− calvarial osteoblasts (COBs) were isolated, and treated with PBS, IGFBP-2 or pegylated heparin-binding domain peptide (PEG-HBD) in MEMα containing 0.1% BSA overnight. Whole cell lysate was collected and expression of PTEN and α-actin was analyzed by Western blot analysis. Expression levels of PTEN were quantified by normalizing to the expression levels of α-actin. c and d. COBs pre-incubated with PBS, IGFBP-2 or PEG-HBD overnight were treated with IGF-I (100 ng/ml) for 15 minutes. Whole cell lysate was collected and expression of pSer473-Akt and Akt was analyzed by Western blot analysis. Expression levels of pSer473-Akt were quantified by normalizing to the expression levels of Akt. Figures shown represent at least 3 independent experiments. Values are expressed as the mean±SEM (n=3-4). Statistical difference was analyzed by Student's t-test. *; <0.001, **; <0.01, ^†; <0.05.
FIG. 9. […] Igfbp2^+/+ calvarial osteoblasts were treated with PBS, control peptide, or heparin-binding domain peptide (HBD-peptide) overnight, and whole cell lysate was collected. PTEN expression was analyzed using western blot analysis (a), and quantitative analysis was performed (b). Values were expressed as the mean±SEM (n=3). Statistical significance was analyzed by ANOVA followed by Bonferroni post-hoc test. ^a; p<0.01 vs. PBS, ^b; p<0.01 vs. control peptide.
To prepare whole cell lysates, cells were solubilized in RIPA buffer^55. For cytosolic fraction, cells were solubilized with hypotonic buffer containing protease and phosphatase inhibitors (10 mM Tris, 0.2 mM MgCl2, pH 7.4) and kept on ice for 10 min. Cell lysates were mixed with sucrose buffer (final concentration; 25 mM Sucrose, 0.1 mM EDTA) and centrifuged at 20,000×g for 1 hour. Supernatant was used as cytosolic fraction. To prepare the membrane fraction, cells were solubilized with PBS containing protease and phosphatase inhibitors. The lysates were frozen at −80° C. for 1 h and thawed at room temperature. After three cycles, they were centrifuged at 13,000×g for 25 min. The pellet was suspended with membrane protein isolation buffer (20 mM Tris-HCl; 150 mM NaCl; 1 mM EDTA; 1 mM EGTA; and 1% Triton X-100, pH 7.5) containing protease and phosphatase inhibitors. Protein concentration was assessed by BCA protein assay kit (Thermo Scientific) and equal amounts of sample were separated by SDS-PAGE and transferred electrophoretically to nitrocellulose membranes. Membranes were blocked in 5% BSA in Tris-buffered saline. […]

[2] = system: primary mouse preadipocytes; experiment: Differentiation of primary mouse preadipocytes, oil red O staining; assay type: cell-based; conditions: peptide 2 ng to 2 ug/ml
Procedure: The maximum effect of the peptide was to inhibit differentiation to a level wherein <20% of the cells were positive. These findings were reconfirmed using primary mouse preadipocytes. 35-50 day old mice were killed and inguinal fat pads were removed aseptically. Fat tissue was washed and dissolved in Hanks basic salt solution containing 0.1% glucose and 2 mg/ml collagenase, (type 3 Worthington) and 4% BSA. Following 15 min digestion at 37°, the tissue was separated by dispersion and pipetting and then filtered through an 80 micron sterile nylon filter. The cells were then plated in DMEM F12 containing 10% fetal calf serum and then centrifuged at 700×g to separate the stromal vascular cells from the adipocytes, which float. The supernatant was discarded and the cell pellet which contained the stromal vascular cells was resuspended in DMEM F12 with 10% FCS and plated at a density of 15,000 cells/cm^2. The medium was aspirated 24 hr later and fresh medium was replaced every 3 days until the cells reached 80-90% confluence. Differentiation was induced by adding serum free medium containing 25 mM glucose, 10 ug/ml transferin, 10 nM T3, 10-7 dexamethasone, 5 ug/ml HDL and 16.7 nM insulin. This was added to cultures that were between […]. […] The IGFBP-2 had been purified from cellular conditioned medium and was determined to be homogenous by amino acid sequence analysis.

[3] = system: metacarpals; experiment: Metacarpal culture ex vivo (calcein incorporated area, length, width); assay type: cell-based, mouse; conditions: 10 days, IGFBP2 200 ng/ml, peptides 2 μg/ml, vs PBS
Procedure: FIG. 2. The heparin binding domain of IGFBP2 enhances periosteal expansion of metacarpals ex vivo. Metacarpals were collected from day 1 male mouse, and treated with osteogenic media with IGFBP2 (200 ng/ml) or the heparin-binding domain peptide (HBD-peptide) (2 μg/ml) in the presence or absence of IGF-1 (20 ng/ml) for 10 days. Bones were labeled with calcein (500 ng/ml) and calcein incorporated area was visualized (a) and longitudinal length of calcein incorporated area was quantified (b). Alcian blue and Von Kossa double staining was performed (c) and length and width of metacarpals were quantified (d). Statistical difference was analyzed by ANOVA followed by Bonferroni post-hoc test. Figures shown represent at least 3 independent experiments. Values are expressed as the mean±SEM (n=3-4). ^a; <0.05 vs PBS, ^b; <0.01 vs PBS, ^c; <0.001 vs PBS, ^d; <0.01 vs HBD, ^e; <0.05 vs IGF-I, ^f; <0.05 vs HBD.
Metacarpals were isolated from Igfbp2^−/− mice at 1-day old and incubated in DMEM containing 0.5% BSA, 50 μg/ml ascorbic acid and 1 mM β-glycerol phosphate for 10 days^54. Stimulants were added to culture media from day 1. At day 10, metacarpals were incubated in media containing calcein (500 ng/ml) for 2 hours for staining of calcium deposition, and images were obtained. Then, bones were fixed with 4% PFA, embedded in paraffin, and processed for Alcian blue and von Kossa double staining.

Molecule | PTEN concentrations [1] | inhibition of adipocyte differentiation [2] | PTEN expression ([1]; primary calvarial osteoblasts, overnight treatment) | calcein incorporated area of metacarpals ([3]; IGF-1 20 ng/ml) | width (and length) of metacarpals [3]
KHHLGLEEPKKLR (IGFBP-2 heparin binding domain-containing peptide sequence) [peptide of SEQ ID NO:1] | could suppress PTEN concentrations | reconfirmed | – | – | –
B1 | could suppress PTEN concentrations | – | markedly suppressed PTEN expression | significantly enhanced | increased the width of metacarpals
